B1: Pistol ribozyme (parent)
chain: GGGUCGUUGUUCCAUAAUCGCGUGGAUAUGGCACGCAAGUUUCUACCGGGCACCGUAAAUGUCCGACUGGAGCCGUUCGGGCGGCUAUAAACAGACCUCAGGCCCGAAGCGUGGCGGCACCUGCCGCCGGUGGUAAAAAAGAUCGGAAGAGCACACGUCU

Variants of: B1
Experiment: aptazyme ON/OFF ratio, guanine; higher = stronger switching; co-transcriptional cleavage with and without guanine

Variant	aptazyme ON/OFF ratio
GGGUCGUCGUAUGAUAAUCGCGUGGAUAUGGCACGCAAGUUUCUACCGGGCACCGUAAAUGUCCGACUGGAGCCGUUCGGGCGGCUAUAAACAGACCUCAGGCCCGAAGCGUGGCGGCACCUGCCGCCGGUGGUAAAAAAGAUCGGAAGAGCACACGUCU [U8C U11A C12U C13G]	1.18
GGGUCGUCGUAUUAUAAUCGCGUGGAUAUGGCACGCAAGUUUCUACCGGGCACCGUAAAUGUCCGACUGGAGCCGUUCGGGCGGCUAUAAACAGACCUCAGGCCCGAAGCGUGGCGGCACCUGCCGCCGGUGGUAAAAAAGAUCGGAAGAGCACACGUCU [U8C U11A C12U C13U]	1.13
GGGUCGUCGUAUAAUAAUCGCGUGGAUAUGGCACGCAAGUUUCUACCGGGCACCGUAAAUGUCCGACUGGAGCCGUUCGGGCGGCUAUAAACAGACCUCAGGCCCGAAGCGUGGCGGCACCUGCCGCCGGUGGUAAAAAAGAUCGGAAGAGCACACGUCU [U8C U11A C12U C13A]	1.21
GGGUCGUCGGGGUAUAAUCGCGUGGAUAUGGCACGCAAGUUUCUACCGGGCACCGUAAAUGUCCGACUGGAGCCGUUCGGGCGGCUAUAAACAGACCUCAGGCCCGAAGCGUGGCGGCACCUGCCGCCGGUGGUAAAAAAGAUCGGAAGAGCACACGUCU [U8C U10G U11G C12G C13U]	1.26
GGGUCGUCGGGGAAUAAUCGCGUGGAUAUGGCACGCAAGUUUCUACCGGGCACCGUAAAUGUCCGACUGGAGCCGUUCGGGCGGCUAUAAACAGACCUCAGGCCCGAAGCGUGGCGGCACCUGCCGCCGGUGGUAAAAAAGAUCGGAAGAGCACACGUCU [U8C U10G U11G C12G C13A]	1.16
GGGUCGUCGGGGGAUAAUCGCGUGGAUAUGGCACGCAAGUUUCUACCGGGCACCGUAAAUGUCCGACUGGAGCCGUUCGGGCGGCUAUAAACAGACCUCAGGCCCGAAGCGUGGCGGCACCUGCCGCCGGUGGUAAAAAAGAUCGGAAGAGCACACGUCU [U8C U10G U11G C12G C13G]	1.13
GGGUCGUCGUAACAUAAUCGCGUGGAUAUGGCACGCAAGUUUCUACCGGGCACCGUAAAUGUCCGACUGGAGCCGUUCGGGCGGCUAUAAACAGACCUCAGGCCCGAAGCGUGGCGGCACCUGCCGCCGGUGGUAAAAAAGAUCGGAAGAGCACACGUCU [U8C U11A C12A]	1.34
GGGUCGUCGUAUCAUAAUCGCGUGGAUAUGGCACGCAAGUUUCUACCGGGCACCGUAAAUGUCCGACUGGAGCCGUUCGGGCGGCUAUAAACAGACCUCAGGCCCGAAGCGUGGCGGCACCUGCCGCCGGUGGUAAAAAAGAUCGGAAGAGCACACGUCU [U8C U11A C12U]	1.19
GGGUCGUCGUAGCAUAAUCGCGUGGAUAUGGCACGCAAGUUUCUACCGGGCACCGUAAAUGUCCGACUGGAGCCGUUCGGGCGGCUAUAAACAGACCUCAGGCCCGAAGCGUGGCGGCACCUGCCGCCGGUGGUAAAAAAGAUCGGAAGAGCACACGUCU [U8C U11A C12G]	1.25
GGGUCGUCGGGCGAUAAUCGCGUGGAUAUGGCACGCAAGUUUCUACCGGGCACCGUAAAUGUCCGACUGGAGCCGUUCGGGCGGCUAUAAACAGACCUCAGGCCCGAAGCGUGGCGGCACCUGCCGCCGGUGGUAAAAAAGAUCGGAAGAGCACACGUCU [U8C U10G U11G C13G]	1.2
GGGUCGUCGGGCUAUAAUCGCGUGGAUAUGGCACGCAAGUUUCUACCGGGCACCGUAAAUGUCCGACUGGAGCCGUUCGGGCGGCUAUAAACAGACCUCAGGCCCGAAGCGUGGCGGCACCUGCCGCCGGUGGUAAAAAAGAUCGGAAGAGCACACGUCU [U8C U10G U11G C13U]	1.22
GGGUCGUCGGGCAAUAAUCGCGUGGAUAUGGCACGCAAGUUUCUACCGGGCACCGUAAAUGUCCGACUGGAGCCGUUCGGGCGGCUAUAAACAGACCUCAGGCCCGAAGCGUGGCGGCACCUGCCGCCGGUGGUAAAAAAGAUCGGAAGAGCACACGUCU [U8C U10G U11G C13A]	1.25
GGGUCGUCGUAGGAUAAUCGCGUGGAUAUGGCACGCAAGUUUCUACCGGGCACCGUAAAUGUCCGACUGGAGCCGUUCGGGCGGCUAUAAACAGACCUCAGGCCCGAAGCGUGGCGGCACCUGCCGCCGGUGGUAAAAAAGAUCGGAAGAGCACACGUCU [U8C U11A C12G C13G]	1.16
GGGUCGUCGUAGAAUAAUCGCGUGGAUAUGGCACGCAAGUUUCUACCGGGCACCGUAAAUGUCCGACUGGAGCCGUUCGGGCGGCUAUAAACAGACCUCAGGCCCGAAGCGUGGCGGCACCUGCCGCCGGUGGUAAAAAAGAUCGGAAGAGCACACGUCU [U8C U11A C12G C13A]	1.1
GGGUCGUCGUAGUAUAAUCGCGUGGAUAUGGCACGCAAGUUUCUACCGGGCACCGUAAAUGUCCGACUGGAGCCGUUCGGGCGGCUAUAAACAGACCUCAGGCCCGAAGCGUGGCGGCACCUGCCGCCGGUGGUAAAAAAGAUCGGAAGAGCACACGUCU [U8C U11A C12G C13U]	1.14
GGGUCGUCGUCAAAUAAUCGCGUGGAUAUGGCACGCAAGUUUCUACCGGGCACCGUAAAUGUCCGACUGGAGCCGUUCGGGCGGCUAUAAACAGACCUCAGGCCCGAAGCGUGGCGGCACCUGCCGCCGGUGGUAAAAAAGAUCGGAAGAGCACACGUCU [U8C U11C C12A C13A]	1.24
GGGUCGUCGUCAGAUAAUCGCGUGGAUAUGGCACGCAAGUUUCUACCGGGCACCGUAAAUGUCCGACUGGAGCCGUUCGGGCGGCUAUAAACAGACCUCAGGCCCGAAGCGUGGCGGCACCUGCCGCCGGUGGUAAAAAAGAUCGGAAGAGCACACGUCU [U8C U11C C12A C13G]	1.4
GGGUCGUCGUCAUAUAAUCGCGUGGAUAUGGCACGCAAGUUUCUACCGGGCACCGUAAAUGUCCGACUGGAGCCGUUCGGGCGGCUAUAAACAGACCUCAGGCCCGAAGCGUGGCGGCACCUGCCGCCGGUGGUAAAAAAGAUCGGAAGAGCACACGUCU [U8C U11C C12A C13U]	1.73
